Measured values as given in publication PMC10397247.

How the values were obtained:
Assay in all cases: two-hybrid library CCNG1;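 further: natural log of median RNA to DNA barcode read ratio; higher means stronger binding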
4H4038-bH = target: T1, 4H4038-bH
T1 chain: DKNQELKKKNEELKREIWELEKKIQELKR

4H797-bH = target: T2, 4H797-bH
T2 chain: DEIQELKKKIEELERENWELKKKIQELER

4H3907-bH = target: T3, 4H3907-bH
T3 chain: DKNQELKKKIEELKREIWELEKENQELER

4H3601-bH = target: T4, 4H3601-bH
T4 chain: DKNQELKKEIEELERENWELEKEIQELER

P3A-bA = target: T5, P3A-bA
T5 chain: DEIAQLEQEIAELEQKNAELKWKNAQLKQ

4H3782-bA = target: T6, 4H3782-bA
T6 chain: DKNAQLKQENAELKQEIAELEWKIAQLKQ

4H3855-bA = target: T7, 4H3855-bA
T7 chain: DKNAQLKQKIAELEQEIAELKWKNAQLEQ

4H967-bA = target: T8, 4H967-bA
T8 chain: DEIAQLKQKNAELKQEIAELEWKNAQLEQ

4H908-bA = target: T9, 4H908-bA
T9 chain: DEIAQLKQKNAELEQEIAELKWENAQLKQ

4H883-bA = target: T10, 4H883-bA
T10 chain: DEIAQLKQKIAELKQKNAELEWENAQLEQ

4H454-bA = target: T11, 4H454-bA
T11 chain: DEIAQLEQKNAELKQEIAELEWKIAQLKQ

4H72-bA = target: T12, 4H72-bA
T12 chain: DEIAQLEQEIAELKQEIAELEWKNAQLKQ

4H3185-bA = target: T13, 4H3185-bA
T13 chain: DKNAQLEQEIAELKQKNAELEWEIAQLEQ

4H338-bA = target: T14, 4H338-bA
T14 chain: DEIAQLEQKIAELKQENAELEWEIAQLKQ

4H3843-bA = target: T15, 4H3843-bA
T15 chain: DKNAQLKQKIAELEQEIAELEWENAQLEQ

4H918-bA = target: T16, 4H918-bA
T16 chain: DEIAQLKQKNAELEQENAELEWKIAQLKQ

4H607-bA = target: T17, 4H607-bA
T17 chain: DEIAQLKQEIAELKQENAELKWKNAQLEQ

4H953-bA = target: T18, 4H953-bA
T18 chain: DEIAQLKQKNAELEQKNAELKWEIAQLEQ

4H331-bA = target: T19, 4H331-bA
T19 chain: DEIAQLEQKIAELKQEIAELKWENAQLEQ

4H4001-bA = target: T20, 4H4001-bA
T20 chain: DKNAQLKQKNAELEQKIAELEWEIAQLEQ

4H3427-bA = target: T21, 4H3427-bA
T21 chain: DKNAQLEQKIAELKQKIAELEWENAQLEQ

4H687-bA = target: T22, 4H687-bA
T22 chain: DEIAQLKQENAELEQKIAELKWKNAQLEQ

4H568-bA = target: T23, 4H568-bA
T23 chain: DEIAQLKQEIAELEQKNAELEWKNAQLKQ

4H717-bA = target: T24, 4H717-bA
T24 chain: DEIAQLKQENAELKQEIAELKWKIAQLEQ

4H3354-bA = target: T25, 4H3354-bA
T25 chain: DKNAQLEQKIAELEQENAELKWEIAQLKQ

4H754-bA = target: T26, 4H754-bA
T26 chain: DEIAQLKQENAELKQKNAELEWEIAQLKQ

4H797-bA = target: T27, 4H797-bA
T27 chain: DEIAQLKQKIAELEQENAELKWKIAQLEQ

4H3112-bA = target: T28, 4H3112-bA
T28 chain: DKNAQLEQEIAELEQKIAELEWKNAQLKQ

4H2697-bA = target: T29, 4H2697-bA
T29 chain: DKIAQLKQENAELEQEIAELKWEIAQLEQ

4H4073-bA = target: T30, 4H4073-bA
T30 chain: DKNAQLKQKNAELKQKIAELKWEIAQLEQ

4H3010-bA = target: T31, 4H3010-bA
T31 chain: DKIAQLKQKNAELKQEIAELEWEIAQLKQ

4H683-bA = target: T32, 4H683-bA
T32 chain: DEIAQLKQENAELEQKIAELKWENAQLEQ

4H2702-bA = target: T33, 4H2702-bA
T33 chain: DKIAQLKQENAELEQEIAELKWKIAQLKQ

4H457-bA = target: T34, 4H457-bA
T34 chain: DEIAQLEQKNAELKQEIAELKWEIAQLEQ

4H1831-bA = target: T35, 4H1831-bA
T35 chain: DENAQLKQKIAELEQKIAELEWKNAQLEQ

4H2627-bA = target: T36, 4H2627-bA
T36 chain: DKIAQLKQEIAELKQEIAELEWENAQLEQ

4H855-bA = target: T37, 4H855-bA
T37 chain: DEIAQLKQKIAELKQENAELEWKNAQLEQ

4H780-bA = target: T38, 4H780-bA
T38 chain: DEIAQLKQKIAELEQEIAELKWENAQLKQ

4H3926-bA = target: T39, 4H3926-bA
T39 chain: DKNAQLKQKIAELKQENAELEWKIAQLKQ

4H3112-bH = target: T40, 4H3112-bH
T40 chain: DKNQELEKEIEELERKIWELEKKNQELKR

4H2673-bA = target: T41, 4H2673-bA
T41 chain: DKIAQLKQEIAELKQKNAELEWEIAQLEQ

4H968-bA = target: T42, 4H968-bA
T42 chain: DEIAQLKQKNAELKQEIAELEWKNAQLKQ

4H346-bA = target: T43, 4H346-bA
T43 chain: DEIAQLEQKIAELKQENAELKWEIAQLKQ

4H2586-bA = target: T44, 4H2586-bA
T44 chain: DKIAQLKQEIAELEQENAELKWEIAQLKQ

4H575-bA = target: T45, 4H575-bA
T45 chain: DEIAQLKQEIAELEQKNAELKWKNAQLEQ

P7A-bA = target: T46, P7A-bA
T46 chain: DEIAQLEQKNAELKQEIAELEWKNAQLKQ

P6A-bA = target: T47, P6A-bA
T47 chain: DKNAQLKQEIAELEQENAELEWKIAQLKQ

P4A-bA = target: T48, P4A-bA
T48 chain: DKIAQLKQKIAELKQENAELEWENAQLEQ

P5A-bA = target: T49, P5A-bA
T49 chain: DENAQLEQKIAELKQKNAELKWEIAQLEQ

P9A-bA = target: T50, P9A-bA
T50 chain: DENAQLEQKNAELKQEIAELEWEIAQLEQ

P8A-bA = target: T51, P8A-bA
T51 chain: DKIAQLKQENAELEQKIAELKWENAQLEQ

B1: 4H3601-bH (peptide)
chain: DKNQELKKEIEELERENWELEKEIQELER
Binder B1 has an interaction score (4H4038-bH) of -1.44, an interaction score (4H797-bH) of -1.38 and an interaction score (4H3907-bH) of -0.759. The interaction score (4H3601-bH) was -1.34.

B2: 4H3185-bA (peptide)
chain: DKNAQLEQEIAELKQKNAELEWEIAQLEQ
Work on B2 yielded an interaction score (P3A-bA) of -0.564, an interaction score (4H3782-bA) of -1.06 and an interaction score (4H3855-bA) of -0.974. The interaction score (4H967-bA) was -0.96, the interaction score (4H908-bA) was -1.86 and the interaction score (4H883-bA) was -1.49. It also gave an interaction score (4H454-bA) of -1.66, an interaction score (4H72-bA) of -1.82 and an interaction score (4H3185-bA) of -0.903. The interaction score (4H338-bA) was -1.39, the interaction score (4H3843-bA) was -0.572 and the interaction score (4H918-bA) was -1.76. It also gave an interaction score (4H607-bA) of -1.07, an interaction score (4H953-bA) of -1.76 and an interaction score (4H331-bA) of -1.49. For the same binder, the interaction score (4H4001-bA) was -0.835, the interaction score (4H3427-bA) was -0.483 and the interaction score (4H687-bA) was -0.744. It also gave an interaction score (4H568-bA) of -1.72, an interaction score (4H717-bA) of -1.46 and an interaction score (4H3354-bA) of -1.03. The interaction score (4H754-bA) was -0.86 and the interaction score (4H797-bA) was -1.99.

B3: 4H1831-bA (peptide)
chain: DENAQLKQKIAELEQKIAELEWKNAQLEQ
With B3 the interaction score (4H3112-bA) was 0.716, the interaction score (4H2697-bA) was -1.55 and the interaction score (4H4073-bA) was -0.475. It also gave an interaction score (4H3010-bA) of 0.376, an interaction score (4H683-bA) of -1.5 and an interaction score (4H2702-bA) of -0.589. For the same binder, the interaction score (4H457-bA) was -0.519, the interaction score (4H1831-bA) was 0.937 and the interaction score (4H2627-bA) was 1.11. The interaction score (4H855-bA) was 0.246, the interaction score (4H780-bA) was -1.1 and the interaction score (4H918-bA) was -0.817. For the same binder, the interaction score (4H3926-bA) was -0.904, the interaction score (4H3112-bH) was -0.386 and the interaction score (4H2673-bA) was 0.133. It also gave an interaction score (4H953-bA) of -0.824, an interaction score (4H968-bA) of -0.46 and an interaction score (4H346-bA) of -0.307. The interaction score (4H3427-bA) was 0.113, the interaction score (4H2586-bA) was -0.446 and the interaction score (4H575-bA) was -0.581. The interaction score (4H754-bA) was -0.649 and the interaction score (4H797-bA) was -0.44.

B4: P2A-bA (peptide)
chain: DKIAQLKQKNAELKQKNAELKWKIAQLKQ
B4 gave an interaction score (P3A-bA) of -0.686, an interaction score (P7A-bA) of -0.916 and an interaction score (P6A-bA) of 0.426. The interaction score (P4A-bA) was 0.0163, the interaction score (P5A-bA) was -0.638 and the interaction score (P9A-bA) was 0.702. The interaction score (P8A-bA) was -0.64.
